Tests used:
[1] = molecular target: T1, ALK-5 (activin receptor like kinase 5), human TGF-β type I receptor (human, UniProt P36897 25-503); assay: affinity cross-linking followed by immunoprecipitation, COS-1 cells co-transfected with ActR-II and the ALK
T1 construct: Expressed from cDNA in COS-1 cells and PAE cells (PAE/TβR-I), or endogenous in human cell lines (AG1518, A549, HSC-2, HUVEC); also called hALK-5; clone EMBLA
T1 sequence: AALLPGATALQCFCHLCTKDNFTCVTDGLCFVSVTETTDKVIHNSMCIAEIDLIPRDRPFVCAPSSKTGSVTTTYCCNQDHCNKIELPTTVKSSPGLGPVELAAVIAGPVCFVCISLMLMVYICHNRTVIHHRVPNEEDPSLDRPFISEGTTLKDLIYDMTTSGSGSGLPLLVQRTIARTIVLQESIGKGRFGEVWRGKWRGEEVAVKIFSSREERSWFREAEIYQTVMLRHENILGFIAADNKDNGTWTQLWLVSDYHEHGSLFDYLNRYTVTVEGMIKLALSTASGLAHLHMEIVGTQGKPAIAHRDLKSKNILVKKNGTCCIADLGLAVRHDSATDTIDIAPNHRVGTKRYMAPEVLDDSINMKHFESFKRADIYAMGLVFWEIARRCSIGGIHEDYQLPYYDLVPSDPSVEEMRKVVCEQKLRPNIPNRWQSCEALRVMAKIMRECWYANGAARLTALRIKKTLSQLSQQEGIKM

[2] = molecular target: T2, ALK-6 (activin receptor like kinase 6), mouse (mouse, UniProt P36898 14-502); assay: as above
T2 construct: Expressed from cDNA in COS-1 cells; also called mALK-6; clone ME-6
T2 sequence (P36898 14-502 limits assumed): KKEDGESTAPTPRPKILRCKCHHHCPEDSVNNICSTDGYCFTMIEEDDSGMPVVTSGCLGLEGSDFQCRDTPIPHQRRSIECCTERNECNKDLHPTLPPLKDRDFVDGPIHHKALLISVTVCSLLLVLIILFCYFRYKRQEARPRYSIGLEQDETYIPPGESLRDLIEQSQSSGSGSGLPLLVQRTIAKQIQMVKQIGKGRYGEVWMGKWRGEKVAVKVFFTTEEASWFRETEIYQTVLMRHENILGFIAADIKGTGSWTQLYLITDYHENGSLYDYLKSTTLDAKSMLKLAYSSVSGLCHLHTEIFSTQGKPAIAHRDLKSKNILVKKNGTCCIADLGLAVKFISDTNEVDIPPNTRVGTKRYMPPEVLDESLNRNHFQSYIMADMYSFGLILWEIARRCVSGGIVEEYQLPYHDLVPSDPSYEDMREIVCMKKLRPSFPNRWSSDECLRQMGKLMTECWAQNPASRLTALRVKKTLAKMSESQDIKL

binding result [1]: binds
binding result [2]: binds
B1: Recombinant human activin A (ligand, UniProt P08476 311-426, looked up)
chain: GLECDGKVNICCKKQFFVSFKDIGWNDWIIAPSGYHANYCEGECPSHIAGTSGSSLSFHSTVINHYRMRGHSPFANLKSCCVPTKLRPMSMLYYDDGQNIIKKDIQNMIVEECGCS
modifications: 125I-iodinated (chloramine T method)

Reference: patent US20080131910A1 (LUDWIG INSTITUTE FOR CANCER RESEARCH, published 2008)
